# Experimental data: the Human Domainome abundance scans (Beltran et al. 2025)
# ± gives the uncertainty stated by the source.
# B1: GA-binding protein alpha chain, residues 172 to 250; numbered along this chain, Q06546 (parent)
# chain: GYRKEQERLGIPYDPIQWSTDQVLHWVVWVMKEFSMTDIDLTTLNISGRELCSLNQEDFFQRVPRGEILWSHLELLRKY
# Variants of: B1
# Experiment: abundance fitness (aPCA) (normalised: wild type 0, dead -1); higher = more abundant; growth selection in yeast, the domain comes from the species named
# Conditions: Homo sapiens
row,Variant,abundance fitness
1,GYRKESERLGIPYDPIQWSTDQVLHWVVWVMKEFSMTDIDLTTLNISGRELCSLNQEDFFQRVPRGEILWSHLELLRKY [Q6S],-0.221 ± 0.042
2,GYRKEPERLGIPYDPIQWSTDQVLHWVVWVMKEFSMTDIDLTTLNISGRELCSLNQEDFFQRVPRGEILWSHLELLRKY [Q6P],-0.739 ± 0.12
3,GYRKEWERLGIPYDPIQWSTDQVLHWVVWVMKEFSMTDIDLTTLNISGRELCSLNQEDFFQRVPRGEILWSHLELLRKY [Q6W],-0.498 ± 0.071
4,GYRKENERLGIPYDPIQWSTDQVLHWVVWVMKEFSMTDIDLTTLNISGRELCSLNQEDFFQRVPRGEILWSHLELLRKY [Q6N],-0.844 ± 0.2
5,GYRKELERLGIPYDPIQWSTDQVLHWVVWVMKEFSMTDIDLTTLNISGRELCSLNQEDFFQRVPRGEILWSHLELLRKY [Q6L],0.037 ± 0.036
6,GYRKEMERLGIPYDPIQWSTDQVLHWVVWVMKEFSMTDIDLTTLNISGRELCSLNQEDFFQRVPRGEILWSHLELLRKY [Q6M],-0.015 ± 0.09
7,GYRKEVERLGIPYDPIQWSTDQVLHWVVWVMKEFSMTDIDLTTLNISGRELCSLNQEDFFQRVPRGEILWSHLELLRKY [Q6V],-0.069 ± 0.036
8,GYRKETERLGIPYDPIQWSTDQVLHWVVWVMKEFSMTDIDLTTLNISGRELCSLNQEDFFQRVPRGEILWSHLELLRKY [Q6T],-0.172 ± 0.054
9,GYRKEQEPLGIPYDPIQWSTDQVLHWVVWVMKEFSMTDIDLTTLNISGRELCSLNQEDFFQRVPRGEILWSHLELLRKY [R8P],-0.596 ± 0.07
10,GYRKEQEFLGIPYDPIQWSTDQVLHWVVWVMKEFSMTDIDLTTLNISGRELCSLNQEDFFQRVPRGEILWSHLELLRKY [R8F],-0.368 ± 0.1
11,GYRKEQETLGIPYDPIQWSTDQVLHWVVWVMKEFSMTDIDLTTLNISGRELCSLNQEDFFQRVPRGEILWSHLELLRKY [R8T],-0.117 ± 0.064
12,GYRKEQEMLGIPYDPIQWSTDQVLHWVVWVMKEFSMTDIDLTTLNISGRELCSLNQEDFFQRVPRGEILWSHLELLRKY [R8M],-0.133 ± 0.058
13,GYRKEQEGLGIPYDPIQWSTDQVLHWVVWVMKEFSMTDIDLTTLNISGRELCSLNQEDFFQRVPRGEILWSHLELLRKY [R8G],-0.363 ± 0.036
14,GYRKEQEELGIPYDPIQWSTDQVLHWVVWVMKEFSMTDIDLTTLNISGRELCSLNQEDFFQRVPRGEILWSHLELLRKY [R8E],-0.054 ± 0.052
15,GYRKEQEQLGIPYDPIQWSTDQVLHWVVWVMKEFSMTDIDLTTLNISGRELCSLNQEDFFQRVPRGEILWSHLELLRKY [R8Q],-0.158 ± 0.061
16,GYRKEQELLGIPYDPIQWSTDQVLHWVVWVMKEFSMTDIDLTTLNISGRELCSLNQEDFFQRVPRGEILWSHLELLRKY [R8L],-0.06 ± 0.035
17,GYRKEQECLGIPYDPIQWSTDQVLHWVVWVMKEFSMTDIDLTTLNISGRELCSLNQEDFFQRVPRGEILWSHLELLRKY [R8C],-0.355 ± 0.064
18,GYRKEQEALGIPYDPIQWSTDQVLHWVVWVMKEFSMTDIDLTTLNISGRELCSLNQEDFFQRVPRGEILWSHLELLRKY [R8A],-0.056 ± 0.035
19,GYRKEQEILGIPYDPIQWSTDQVLHWVVWVMKEFSMTDIDLTTLNISGRELCSLNQEDFFQRVPRGEILWSHLELLRKY [R8I],-0.222 ± 0.1
20,GYRKEQEHLGIPYDPIQWSTDQVLHWVVWVMKEFSMTDIDLTTLNISGRELCSLNQEDFFQRVPRGEILWSHLELLRKY [R8H],-0.21 ± 0.1
21,GYRKEQENLGIPYDPIQWSTDQVLHWVVWVMKEFSMTDIDLTTLNISGRELCSLNQEDFFQRVPRGEILWSHLELLRKY [R8N],-0.191 ± 0.12
22,GYRKEQEDLGIPYDPIQWSTDQVLHWVVWVMKEFSMTDIDLTTLNISGRELCSLNQEDFFQRVPRGEILWSHLELLRKY [R8D],-0.185 ± 0.099
23,GYRKEQEKLGIPYDPIQWSTDQVLHWVVWVMKEFSMTDIDLTTLNISGRELCSLNQEDFFQRVPRGEILWSHLELLRKY [R8K],-0.024 ± 0.064

row,Variant,abundance fitness
1,GYRKEQERTGIPYDPIQWSTDQVLHWVVWVMKEFSMTDIDLTTLNISGRELCSLNQEDFFQRVPRGEILWSHLELLRKY [L9T],-0.11 ± 0.055
2,GYRKEQERGGIPYDPIQWSTDQVLHWVVWVMKEFSMTDIDLTTLNISGRELCSLNQEDFFQRVPRGEILWSHLELLRKY [L9G],-0.373 ± 0.035
3,GYRKEQERRGIPYDPIQWSTDQVLHWVVWVMKEFSMTDIDLTTLNISGRELCSLNQEDFFQRVPRGEILWSHLELLRKY [L9R],-0.047 ± 0.037
4,GYRKEQERMGIPYDPIQWSTDQVLHWVVWVMKEFSMTDIDLTTLNISGRELCSLNQEDFFQRVPRGEILWSHLELLRKY [L9M],0.011 ± 0.038
5,GYRKEQERKGIPYDPIQWSTDQVLHWVVWVMKEFSMTDIDLTTLNISGRELCSLNQEDFFQRVPRGEILWSHLELLRKY [L9K],-0.061 ± 0.096
6,GYRKEQERPGIPYDPIQWSTDQVLHWVVWVMKEFSMTDIDLTTLNISGRELCSLNQEDFFQRVPRGEILWSHLELLRKY [L9P],-0.815 ± 0.096
7,GYRKEQEREGIPYDPIQWSTDQVLHWVVWVMKEFSMTDIDLTTLNISGRELCSLNQEDFFQRVPRGEILWSHLELLRKY [L9E],-0.117 ± 0.067
8,GYRKEQERAGIPYDPIQWSTDQVLHWVVWVMKEFSMTDIDLTTLNISGRELCSLNQEDFFQRVPRGEILWSHLELLRKY [L9A],-0.08 ± 0.053
9,GYRKEQERVGIPYDPIQWSTDQVLHWVVWVMKEFSMTDIDLTTLNISGRELCSLNQEDFFQRVPRGEILWSHLELLRKY [L9V],-0.013 ± 0.035
10,GYRKEQERSGIPYDPIQWSTDQVLHWVVWVMKEFSMTDIDLTTLNISGRELCSLNQEDFFQRVPRGEILWSHLELLRKY [L9S],-0.174 ± 0.046
11,GYRKEQERQGIPYDPIQWSTDQVLHWVVWVMKEFSMTDIDLTTLNISGRELCSLNQEDFFQRVPRGEILWSHLELLRKY [L9Q],0.016 ± 0.055
12,GYRKEQERNGIPYDPIQWSTDQVLHWVVWVMKEFSMTDIDLTTLNISGRELCSLNQEDFFQRVPRGEILWSHLELLRKY [L9N],-0.08 ± 0.079
13,GYRKEQERIGIPYDPIQWSTDQVLHWVVWVMKEFSMTDIDLTTLNISGRELCSLNQEDFFQRVPRGEILWSHLELLRKY [L9I],-0.081 ± 0.13
14,GYRKEQERDGIPYDPIQWSTDQVLHWVVWVMKEFSMTDIDLTTLNISGRELCSLNQEDFFQRVPRGEILWSHLELLRKY [L9D],-0.368 ± 0.095
15,GYRKEQERYGIPYDPIQWSTDQVLHWVVWVMKEFSMTDIDLTTLNISGRELCSLNQEDFFQRVPRGEILWSHLELLRKY [L9Y],-0.133 ± 0.082
16,GYRKEQFRLGIPYDPIQWSTDQVLHWVVWVMKEFSMTDIDLTTLNISGRELCSLNQEDFFQRVPRGEILWSHLELLRKY [E7F],-0.252 ± 0.063
17,GYRKEQVRLGIPYDPIQWSTDQVLHWVVWVMKEFSMTDIDLTTLNISGRELCSLNQEDFFQRVPRGEILWSHLELLRKY [E7V],-0.172 ± 0.033
18,GYRKEQYRLGIPYDPIQWSTDQVLHWVVWVMKEFSMTDIDLTTLNISGRELCSLNQEDFFQRVPRGEILWSHLELLRKY [E7Y],-0.282 ± 0.085
19,GYRKEQMRLGIPYDPIQWSTDQVLHWVVWVMKEFSMTDIDLTTLNISGRELCSLNQEDFFQRVPRGEILWSHLELLRKY [E7M],-0.098 ± 0.057
20,GYRKEQTRLGIPYDPIQWSTDQVLHWVVWVMKEFSMTDIDLTTLNISGRELCSLNQEDFFQRVPRGEILWSHLELLRKY [E7T],-0.09 ± 0.046
21,GYRKEQGRLGIPYDPIQWSTDQVLHWVVWVMKEFSMTDIDLTTLNISGRELCSLNQEDFFQRVPRGEILWSHLELLRKY [E7G],-0.315 ± 0.029
22,GYRKEQDRLGIPYDPIQWSTDQVLHWVVWVMKEFSMTDIDLTTLNISGRELCSLNQEDFFQRVPRGEILWSHLELLRKY [E7D],0.031 ± 0.073
23,GYRKEQNRLGIPYDPIQWSTDQVLHWVVWVMKEFSMTDIDLTTLNISGRELCSLNQEDFFQRVPRGEILWSHLELLRKY [E7N],-0.177 ± 0.14

row,Variant,abundance fitness
1,GYRKEQPRLGIPYDPIQWSTDQVLHWVVWVMKEFSMTDIDLTTLNISGRELCSLNQEDFFQRVPRGEILWSHLELLRKY [E7P],-0.891 ± 0.097
2,GYRKEQSRLGIPYDPIQWSTDQVLHWVVWVMKEFSMTDIDLTTLNISGRELCSLNQEDFFQRVPRGEILWSHLELLRKY [E7S],-0.163 ± 0.038
3,GYRKEQKRLGIPYDPIQWSTDQVLHWVVWVMKEFSMTDIDLTTLNISGRELCSLNQEDFFQRVPRGEILWSHLELLRKY [E7K],-0.494 ± 0.28
4,GYRKEQIRLGIPYDPIQWSTDQVLHWVVWVMKEFSMTDIDLTTLNISGRELCSLNQEDFFQRVPRGEILWSHLELLRKY [E7I],-0.161 ± 0.12
5,GYRKEQARLGIPYDPIQWSTDQVLHWVVWVMKEFSMTDIDLTTLNISGRELCSLNQEDFFQRVPRGEILWSHLELLRKY [E7A],-0.071 ± 0.044
6,GYRKEQQRLGIPYDPIQWSTDQVLHWVVWVMKEFSMTDIDLTTLNISGRELCSLNQEDFFQRVPRGEILWSHLELLRKY [E7Q],-0.072 ± 0.054
7,GYRKEQWRLGIPYDPIQWSTDQVLHWVVWVMKEFSMTDIDLTTLNISGRELCSLNQEDFFQRVPRGEILWSHLELLRKY [E7W],-0.288 ± 0.05
8,GYRKEQRRLGIPYDPIQWSTDQVLHWVVWVMKEFSMTDIDLTTLNISGRELCSLNQEDFFQRVPRGEILWSHLELLRKY [E7R],-0.141 ± 0.03
9,GYRKEQERLNIPYDPIQWSTDQVLHWVVWVMKEFSMTDIDLTTLNISGRELCSLNQEDFFQRVPRGEILWSHLELLRKY [G10N],0.028 ± 0.075
10,GYRKEQERLPIPYDPIQWSTDQVLHWVVWVMKEFSMTDIDLTTLNISGRELCSLNQEDFFQRVPRGEILWSHLELLRKY [G10P],-0.978 ± 0.13
11,GYRKEQERLKIPYDPIQWSTDQVLHWVVWVMKEFSMTDIDLTTLNISGRELCSLNQEDFFQRVPRGEILWSHLELLRKY [G10K],-0.041 ± 0.051
12,GYRKEQERLIIPYDPIQWSTDQVLHWVVWVMKEFSMTDIDLTTLNISGRELCSLNQEDFFQRVPRGEILWSHLELLRKY [G10I],-0.562 ± 0.23
13,GYRKEQERLRIPYDPIQWSTDQVLHWVVWVMKEFSMTDIDLTTLNISGRELCSLNQEDFFQRVPRGEILWSHLELLRKY [G10R],-0.085 ± 0.033
14,GYRKEQERLQIPYDPIQWSTDQVLHWVVWVMKEFSMTDIDLTTLNISGRELCSLNQEDFFQRVPRGEILWSHLELLRKY [G10Q],0.01 ± 0.057
15,GYRKEQERLCIPYDPIQWSTDQVLHWVVWVMKEFSMTDIDLTTLNISGRELCSLNQEDFFQRVPRGEILWSHLELLRKY [G10C],-0.079 ± 0.05
16,GYRKEQERLFIPYDPIQWSTDQVLHWVVWVMKEFSMTDIDLTTLNISGRELCSLNQEDFFQRVPRGEILWSHLELLRKY [G10F],-0.272 ± 0.079
17,GYRKEQERLLIPYDPIQWSTDQVLHWVVWVMKEFSMTDIDLTTLNISGRELCSLNQEDFFQRVPRGEILWSHLELLRKY [G10L],-0.158 ± 0.03
18,GYRKEQERLDIPYDPIQWSTDQVLHWVVWVMKEFSMTDIDLTTLNISGRELCSLNQEDFFQRVPRGEILWSHLELLRKY [G10D],-0.196 ± 0.087
19,GYRKEQERLEIPYDPIQWSTDQVLHWVVWVMKEFSMTDIDLTTLNISGRELCSLNQEDFFQRVPRGEILWSHLELLRKY [G10E],-0.096 ± 0.038
20,GYRKEQERLAIPYDPIQWSTDQVLHWVVWVMKEFSMTDIDLTTLNISGRELCSLNQEDFFQRVPRGEILWSHLELLRKY [G10A],-0.068 ± 0.035
21,GYRKEQERLMIPYDPIQWSTDQVLHWVVWVMKEFSMTDIDLTTLNISGRELCSLNQEDFFQRVPRGEILWSHLELLRKY [G10M],-0.096 ± 0.059
22,GYRKEQERLTIPYDPIQWSTDQVLHWVVWVMKEFSMTDIDLTTLNISGRELCSLNQEDFFQRVPRGEILWSHLELLRKY [G10T],-0.411 ± 0.069
23,GYRKEQERLHIPYDPIQWSTDQVLHWVVWVMKEFSMTDIDLTTLNISGRELCSLNQEDFFQRVPRGEILWSHLELLRKY [G10H],-0.07 ± 0.085
